System: Cord blood-derived CD4+/CD25- cells
Assay: Priming of naive CD4+ T cells to Melan-A/MART-1 or NY-ESO-1 with DCs pre-incubated with MMP-2
Type: cell-based, human
Protocol: (A) Cord blood-derived CD4^+/CD25^− cells were stimulated with autologous poly(I:C)-matured DCs pulsed with overlapping peptides spanning either Melan-A/MART-1 or NY-ESO-1. Prior to poly(I:C) addition, DCs were incubated with or without MMP-2 (active or heat-inactivated) for 1 h. MMP-2 enzymatic activity was controlled (FIG. 13C-D). After 15 days, CD4^+ T cells were stimulated with the Melan-A/MART-1 or NY-ESO-1 peptide pools (2 μM) for 6 h before intracellular staining of cytokines. Percentages of antigen-specific CD4^+ T cells, secreting indicated cytokines, are represented for all donors. (B) Contour plots showing percentages of cytokine-producing CD4^+ T cells are shown for representative donor CB45 primed to Melan-A/MART-1. Percentage of secreting cells upon peptide stimulation was considered specific/positive when it exceeded by more than twofold the background (cytokine-secreting cells in the absence of stimulation) and had more than 0.5% of responding cells (after background subtraction) for at least one cytokine. For each cytokine, 2 paired t-tests were used to compare priming in the presence of active MMP-2 to either priming in the absence of active MMP-2 or with HI MMP-2. The Bonferroni adjustment was used for multiple comparisons. P values≦0.025 (*) were considered statistically significant using a Bonferroni correction for 2 comparisons.
T Cell culture, stimulation and priming. Peripheral blood mononuclear cells (PBMCs) were purified from healthy donor-(HD) or cord blood donor-(CB) derived buffy coats (New York Blood Center) by Ficoll-Paque Plus (GE Healthcare) centrifugation. CD4^+/CD25^− cells were enriched (>90%) by magnetic cell sorting (Miltenyi Biotec) and primed/stimulated for 12-15 days either with irradiated (35Gy) autologous CD4^− cells or with autologous mature DCs in IMDM (GIBCO) supplemented with 1 mM HEPES (Life Technologies), 2 mM L-glutamine (Sigma), streptomycin (100 UI/mL)/penicillin (100 μg/mL) (Sigma) and 5% heat inactivated pooled human serum (PHS; Valley Biomedical) in the presence of rhIL-2 (10 UI/mL) and IL7 (5 ng/mL) (R&D Systems). Antigen presenting cells (CD4^− cells or DCs) were loaded either with peptides (2 μM) or with the MMP-2 protein (10 μg/mL) for 2 and 5 h, respectively. DCs were matured using the TLR3 agonist poly(I:C) at 5 μg/mL/10^6 DCs (Amersham). To generate T cell clones, we originally relied on our published methodology (Godefroy et al., 2006; Godefroy et al., 2007; the entire contents of each of which is incorporated herein by reference), involving enrichment of IFNγ-secreting cells upon short-term culture and peptide stimulation to generate MMP-2 responsive clones. Briefly, CD4^+ T cells were stimulated by CD4^− cells irradiated and pulsed with peptides for 12 days in the presence of rhIL-2 and rhIL-7. CD4^+ T cells were then restimulated with peptides for 3 hours before capturing IFNγ-secreting specific cells using a bispecific antibody coating T cells and capturing produced IFNγ. Positive cells were purified magnetically before being cloned. Although MMP-2-specific cells could be isolated, it was realized that IFNγ secretion was marginal compared to their secretion of IL-4 and TNFα. IFNγ-secreting cells in response to MMP-2 peptide pool were enriched by cytokine-guided magnetic cell sorting (Miltenyi Biotec) as described above and cloned the following day by limiting dilution in the presence of irradiated allogeneic PBMCs, 1 μg/mL phytohemagglutinin-L (Sigma) and 150 UI/mL rhIL-2. Tumor infiltrating lymphocytes (TILs) were provided by Pr. F. Jotereau and B. Dréno. They were obtained from tumor-invaded lymph nodes of melanoma patients (stage Mb) and expanded ex vivo. These patients received autologous TILs and IL-2 infusions in a clinical trial (Labarriere et al., 2002). This protocol was approved by the Institutional Ethics Committee and registered with regulatory state authority in France (Nantes). […]

[1] = DCs pre-incubated before poly(I:C) maturation

B1: active MMP-2: Purified human MMP-2 (mixture of the proenzyme (50%) and the active form (50%)) purchased from Biomol (protein, listed as Homo sapiens)
chain: MEALMARGALTGPLRALCLLGCLLSHAAAAPSPIIKFPGDVAPKTDKELAVQYLNTFYGCPKESCNLFVLKDTLKKMQKFFGLPQTGDLDQNTIETMRKPRCGNPDVANYNFFPRKPKWDKNQITYRIIGYTPDLDPETVDDAFARAFQVWSDVTPLRFSRIHDGEADIMINFGRWEHGDGYPFDGKDGLLAHAFAPGTGVGGDSHFDDDELWTLGEGQVVRVKYGNADGEYCKFPFLFNGKEYNSCTDTGRSDGFLWCSTTYNFEKDGKYGFCPHEALFTMGGNAEGQPCKFPFRFQGTSYDSCTTEGRTDGYRWCGTTEDYDRDKKYGFCPETAMSTVGGNSEGAPCVFPFTFLGNKYESCTSAGRSDGKMWCATTANYDDDRKWGFCPDQGYSLFLVAAHEFGHAMGLEHSQDPGALMAPIYTYTKNFRLSQDDIKGIQELYGASPDIDLGTGPTPTLGPVTPEICKQDIVFDGIAQIRGEIFFFKDRFIWRTVTPRDKPMGPLLVATFWPELPEKIDAVYEAPQEEKAVFFAGNEYWIYSASTLERGYPKPLTSLGLPPDVQRVDAAFNWSKNKKTYIFAGDKFWRYNEVKKKMDPGFPKLIADAWNAIPDNLDAVVDLQGGGHSYFFKGAYYLKLENQSLKSVKFGSIKSDWLGC
10 cord blood donors, 15 days
  antigen-specific CD4+ T cells secreting IL-4, mean: 2.50%
  antigen-specific CD4+ T cells secreting IL-13, mean: 0.08%
[1]
  IL-4, mean of differences versus priming without MMP-2: 1.85
  IL-13, mean of differences versus priming without MMP-2: 0.07
Melan-A/MART-1- and NY-ESO-1-specific primed CD4+ T cells
  production of type-1 cytokines (IFNγ and IL-2) upon peptide re-stimulation: failed to produce

From patent US9395368B2, “Methods, agents and peptides for inducing an immune response to matrix metalloproteinase-2 expressing tumors” (New York University, priority 2010, dated 2016)
